Assay results reported in paper PMC4376777 (PLoS Pathogens, 2015).

Target: T1, GST–PPM1A (human, UniProt P35813-1 1-382)
T1 construct: also called GST–PPM1A-WT; purified PPM1A
T1 sequence (looked up): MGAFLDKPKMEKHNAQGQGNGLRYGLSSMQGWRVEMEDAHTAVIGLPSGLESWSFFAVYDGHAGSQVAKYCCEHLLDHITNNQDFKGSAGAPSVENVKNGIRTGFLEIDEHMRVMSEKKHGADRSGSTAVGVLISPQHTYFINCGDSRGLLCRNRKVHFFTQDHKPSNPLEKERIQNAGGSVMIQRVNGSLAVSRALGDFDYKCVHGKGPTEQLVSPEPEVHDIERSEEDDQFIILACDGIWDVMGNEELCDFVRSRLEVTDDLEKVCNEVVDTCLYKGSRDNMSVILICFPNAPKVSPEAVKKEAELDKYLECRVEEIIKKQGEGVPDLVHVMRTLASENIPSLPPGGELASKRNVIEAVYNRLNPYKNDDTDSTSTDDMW
Experiment: pull-down; 1 μg of each purified protein incubated with glutathione–Sepharose beads at 4°C overnight; washed with 50 mM Tris-HCl pH 7.5, 200 mM NaCl, 10% glycerol, 0.1% Triton X-100; immunoblot
Conditions: both partners purified

B1: His–STING (amino acids 153–379) (domain or fragment, human, UniProt Q86WV6 153-379, looked up)
chain: FNVAHGLAWSYYIGYLRLILPELQARIRTYNQHYNNLLRGAVSQRLYILLPLDCGVPDNLSMADPNIRFLDKLPQQTGDHAGIKDRVYSNSIYELLENGQRAGTCVLEYATPLQTLFAMSQYSQAGFSREDRLEQAKLFCRTLEDILADAPESQNNCRLIAYQEPADDSSFSLSQEVLRHLRQEEKEEVTVGSLKTSAVPSTSTMSQEPELLISGMEKPLPLRTDFS
**Q.** Does B1 bind?
**A.** Result: binds
